Like-named read-outs stand apart in the source and are kept apart here.
T1: Human IL-36R protein (His + Avi Tag, biotinylation), Kactus IL1-HM4L2B (human, UniProt Q9HB29 20-335, biotinylated)
T1 construct: Screening antigen of the phage panning; also called biotinylated human IL-36R; human IL-36R antigen (screening antigen)
T1 sequence: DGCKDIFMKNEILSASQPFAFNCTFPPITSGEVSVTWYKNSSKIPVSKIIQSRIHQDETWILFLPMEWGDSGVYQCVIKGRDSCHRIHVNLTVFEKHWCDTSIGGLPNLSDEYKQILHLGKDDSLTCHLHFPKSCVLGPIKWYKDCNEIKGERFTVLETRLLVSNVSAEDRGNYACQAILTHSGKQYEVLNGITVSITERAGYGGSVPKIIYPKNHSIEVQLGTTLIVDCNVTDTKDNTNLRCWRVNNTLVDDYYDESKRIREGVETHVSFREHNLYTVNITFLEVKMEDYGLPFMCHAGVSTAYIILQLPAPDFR

T2: human IL-36R full-length protein stably expressed on CHO-K1 cells (human, UniProt Q9HB29 20-575)
T2 construct: FlpIn CHO-K1 line expressing the full-length protein; also called human IL-36R on the surface of CHO-K1 cells; CHO-K1 cells overexpressing human IL-36R
T2 sequence: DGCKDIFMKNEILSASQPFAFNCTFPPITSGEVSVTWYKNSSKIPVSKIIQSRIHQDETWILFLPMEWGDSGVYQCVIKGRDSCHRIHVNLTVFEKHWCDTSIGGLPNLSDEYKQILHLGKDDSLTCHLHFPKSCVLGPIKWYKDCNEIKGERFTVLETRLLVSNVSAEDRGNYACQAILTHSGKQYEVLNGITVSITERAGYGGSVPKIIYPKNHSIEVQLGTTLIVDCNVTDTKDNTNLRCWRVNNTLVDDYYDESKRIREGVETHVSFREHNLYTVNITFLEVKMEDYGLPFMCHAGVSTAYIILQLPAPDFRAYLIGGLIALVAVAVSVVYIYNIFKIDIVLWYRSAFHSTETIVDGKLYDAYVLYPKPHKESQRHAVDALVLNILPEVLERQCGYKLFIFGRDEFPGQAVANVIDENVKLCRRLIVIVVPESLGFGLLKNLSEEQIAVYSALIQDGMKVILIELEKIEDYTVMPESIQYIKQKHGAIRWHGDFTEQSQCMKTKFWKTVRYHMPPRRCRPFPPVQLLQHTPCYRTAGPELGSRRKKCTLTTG

T3: Human IL-36R protein (His + Avi Tag), Kactus IL1-HM4L2 (human, UniProt Q9HB29 20-335)
T3 construct: Bought protein; also called human IL-36R antigen protein; Human IL-36R antigen
T3 sequence: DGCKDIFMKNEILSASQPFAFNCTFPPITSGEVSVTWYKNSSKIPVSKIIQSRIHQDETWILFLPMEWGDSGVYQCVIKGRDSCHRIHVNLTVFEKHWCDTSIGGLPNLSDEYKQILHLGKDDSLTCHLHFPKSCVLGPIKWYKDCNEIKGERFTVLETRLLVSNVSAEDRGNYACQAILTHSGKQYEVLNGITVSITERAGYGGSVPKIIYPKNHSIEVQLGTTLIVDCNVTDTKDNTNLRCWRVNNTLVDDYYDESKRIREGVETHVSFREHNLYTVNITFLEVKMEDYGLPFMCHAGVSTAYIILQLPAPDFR

T4: human IL-23 protein (ACROBiosystems, ILB-H52W5) (human, UniProt Q9NPF7 20-189; P29460 23-328)
T4 sequence (looked up) 1: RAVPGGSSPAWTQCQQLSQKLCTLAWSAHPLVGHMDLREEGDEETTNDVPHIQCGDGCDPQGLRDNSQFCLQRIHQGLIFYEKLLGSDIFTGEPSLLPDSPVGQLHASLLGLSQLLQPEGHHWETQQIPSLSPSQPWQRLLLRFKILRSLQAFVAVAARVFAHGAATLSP
T4 sequence (looked up) 2: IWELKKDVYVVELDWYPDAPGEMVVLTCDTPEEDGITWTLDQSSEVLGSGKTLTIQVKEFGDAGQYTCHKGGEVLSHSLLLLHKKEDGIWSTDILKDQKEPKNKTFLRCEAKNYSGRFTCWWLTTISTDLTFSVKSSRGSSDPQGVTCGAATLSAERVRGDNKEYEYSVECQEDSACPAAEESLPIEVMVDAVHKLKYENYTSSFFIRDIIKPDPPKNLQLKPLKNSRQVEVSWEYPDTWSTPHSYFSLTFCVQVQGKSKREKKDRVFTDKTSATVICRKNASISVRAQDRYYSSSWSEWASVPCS

T5: IL-36R on human skin squamous cell line A431 (human, UniProt Q9HB29 20-575)
T5 sequence (looked up): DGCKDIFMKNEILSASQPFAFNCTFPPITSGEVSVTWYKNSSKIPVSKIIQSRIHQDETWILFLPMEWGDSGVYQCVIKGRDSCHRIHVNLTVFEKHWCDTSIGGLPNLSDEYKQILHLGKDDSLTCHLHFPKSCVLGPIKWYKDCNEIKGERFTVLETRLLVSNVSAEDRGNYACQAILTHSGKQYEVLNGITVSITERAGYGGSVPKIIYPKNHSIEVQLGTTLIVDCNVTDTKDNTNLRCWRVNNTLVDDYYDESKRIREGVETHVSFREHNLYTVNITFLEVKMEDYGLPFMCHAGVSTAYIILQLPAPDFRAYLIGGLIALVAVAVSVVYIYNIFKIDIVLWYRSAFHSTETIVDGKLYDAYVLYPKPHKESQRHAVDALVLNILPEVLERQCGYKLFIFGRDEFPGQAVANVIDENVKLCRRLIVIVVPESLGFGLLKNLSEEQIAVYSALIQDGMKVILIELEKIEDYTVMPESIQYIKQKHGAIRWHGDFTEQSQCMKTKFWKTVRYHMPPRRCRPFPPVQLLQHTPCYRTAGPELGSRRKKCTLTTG

T6: human IL-23 protein (Sino Biological, CT048-H08H) (human, UniProt Q9NPF7 20-189; P29460 23-328)
T6 sequence (looked up) 1: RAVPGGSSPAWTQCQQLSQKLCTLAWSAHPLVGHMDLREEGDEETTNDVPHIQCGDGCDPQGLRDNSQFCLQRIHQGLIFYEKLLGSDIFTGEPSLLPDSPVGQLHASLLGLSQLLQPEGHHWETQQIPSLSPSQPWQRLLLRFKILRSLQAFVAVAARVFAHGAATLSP
T6 sequence (looked up) 2: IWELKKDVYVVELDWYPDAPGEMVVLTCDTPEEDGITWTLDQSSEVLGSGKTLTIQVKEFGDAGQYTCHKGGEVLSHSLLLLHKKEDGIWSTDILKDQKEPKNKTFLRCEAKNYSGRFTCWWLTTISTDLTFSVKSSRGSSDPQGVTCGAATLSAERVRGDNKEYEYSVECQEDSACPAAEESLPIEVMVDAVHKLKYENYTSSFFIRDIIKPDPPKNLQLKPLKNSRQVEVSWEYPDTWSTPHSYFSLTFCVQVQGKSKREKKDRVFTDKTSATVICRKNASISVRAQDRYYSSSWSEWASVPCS

T7: IL-23 (R&D Systems, 1290-IL-010) (UniProt Q9NPF7 20-189; P29460 23-328)
T7 sequence (looked up) 1: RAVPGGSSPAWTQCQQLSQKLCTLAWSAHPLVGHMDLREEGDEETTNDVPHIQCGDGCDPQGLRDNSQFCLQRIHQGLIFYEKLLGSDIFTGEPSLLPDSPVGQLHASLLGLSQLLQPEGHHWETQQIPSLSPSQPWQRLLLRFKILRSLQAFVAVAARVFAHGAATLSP
T7 sequence (looked up) 2: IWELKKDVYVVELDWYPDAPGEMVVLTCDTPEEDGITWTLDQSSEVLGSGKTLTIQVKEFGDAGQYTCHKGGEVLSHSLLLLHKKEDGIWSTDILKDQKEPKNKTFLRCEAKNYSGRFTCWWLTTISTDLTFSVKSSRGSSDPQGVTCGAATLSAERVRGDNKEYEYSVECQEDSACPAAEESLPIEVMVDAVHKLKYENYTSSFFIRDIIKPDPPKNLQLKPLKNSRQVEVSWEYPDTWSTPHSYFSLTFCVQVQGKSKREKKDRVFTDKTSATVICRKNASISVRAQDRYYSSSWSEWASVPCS

B1: VHH162 (camelid nanobody clone from the phage library) (VHH)
VHH: DVQLVESGGGSVQPGGSLRLSCAASGYSYRTQCLGWYRQAPGKQREAVATISGGGTSTYYSDSVKGRFTISQDNARTTVYLSLTSLKPEDTATYYCAAGLSVLGSWCHGGSSYEYTYSGQGTQVTVSS
notes: As identified by panning and clone ELISA (phage or clone format not described)
B2: IL-36R-IL-23-01 (anti-IL-36R and anti-IL-23 bispecific antibody, VHH213_Hu07 on Hu29-19, Structure A) (bispecific antibody, human IgG1, kappa, L234A L235A)
heavy: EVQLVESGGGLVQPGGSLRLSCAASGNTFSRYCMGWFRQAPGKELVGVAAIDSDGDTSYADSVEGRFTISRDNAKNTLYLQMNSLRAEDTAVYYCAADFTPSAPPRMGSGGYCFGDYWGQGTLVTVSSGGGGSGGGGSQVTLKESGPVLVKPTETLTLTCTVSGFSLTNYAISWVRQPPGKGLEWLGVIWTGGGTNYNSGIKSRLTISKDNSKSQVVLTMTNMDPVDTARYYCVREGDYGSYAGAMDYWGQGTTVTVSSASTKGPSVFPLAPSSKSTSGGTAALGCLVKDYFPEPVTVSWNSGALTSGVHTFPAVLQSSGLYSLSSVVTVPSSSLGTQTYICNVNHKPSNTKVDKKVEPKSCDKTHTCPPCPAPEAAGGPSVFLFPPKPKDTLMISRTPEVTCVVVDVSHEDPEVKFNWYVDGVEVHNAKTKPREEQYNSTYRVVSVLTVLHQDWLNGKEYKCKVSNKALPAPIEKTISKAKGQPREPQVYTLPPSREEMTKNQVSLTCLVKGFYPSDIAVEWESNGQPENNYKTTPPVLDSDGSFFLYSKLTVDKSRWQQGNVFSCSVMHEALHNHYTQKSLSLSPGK
light: DIVLTQSPDSLAVSLGERATINCRASESVDYYGISSMHWFQQKPGQPPKLLIYRASNLESGIPARFSGSGSRTDFTLTISSLQAEDVAVYYCQQANKDPYTFGGGTKVEIKRTVAAPSVFIFPPSDEQLKSGTASVVCLLNNFYPREAKVQWKVDNALQSGNSQESVTEQDSKDSTYSLSSTLTLSKADYEKHKVYACEVTHQGLSSPVTKSFNRGEC
notes: VHH fused by a (G4S)2 linker to the N-terminus of the heavy chain; IgG1 L234A/L235A
B3: IL-36R-IL-23-02 (anti-IL-36R and anti-IL-23 bispecific antibody, VHH162_Hu11 on Hu29-19, Structure A) (bispecific antibody, human IgG1, kappa, L234A L235A)
heavy: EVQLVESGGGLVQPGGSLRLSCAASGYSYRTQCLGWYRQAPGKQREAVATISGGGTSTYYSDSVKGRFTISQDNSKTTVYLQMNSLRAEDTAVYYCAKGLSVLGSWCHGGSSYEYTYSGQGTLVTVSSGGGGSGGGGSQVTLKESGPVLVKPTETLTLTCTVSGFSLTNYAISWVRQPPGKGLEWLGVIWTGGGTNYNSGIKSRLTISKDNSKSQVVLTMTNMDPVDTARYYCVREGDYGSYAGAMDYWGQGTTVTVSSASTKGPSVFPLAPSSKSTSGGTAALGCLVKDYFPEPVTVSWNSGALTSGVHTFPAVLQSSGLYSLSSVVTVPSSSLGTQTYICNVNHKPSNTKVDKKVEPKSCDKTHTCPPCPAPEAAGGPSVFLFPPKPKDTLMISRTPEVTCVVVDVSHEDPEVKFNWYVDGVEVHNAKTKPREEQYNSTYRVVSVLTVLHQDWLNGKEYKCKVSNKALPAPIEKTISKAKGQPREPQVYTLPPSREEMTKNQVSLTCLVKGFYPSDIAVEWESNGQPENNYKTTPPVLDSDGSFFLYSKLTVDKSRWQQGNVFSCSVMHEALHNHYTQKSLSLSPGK
light: DIVLTQSPDSLAVSLGERATINCRASESVDYYGISSMHWFQQKPGQPPKLLIYRASNLESGIPARFSGSGSRTDFTLTISSLQAEDVAVYYCQQANKDPYTFGGGTKVEIKRTVAAPSVFIFPPSDEQLKSGTASVVCLLNNFYPREAKVQWKVDNALQSGNSQESVTEQDSKDSTYSLSSTLTLSKADYEKHKVYACEVTHQGLSSPVTKSFNRGEC
notes: VHH fused by a (G4S)2 linker to the N-terminus of the heavy chain; IgG1 L234A/L235A; also called IL-36R-1L-23-02
B4: Hu29-19 (humanized anti-IL-23 antibody, hAb29VH5 and hAb29VL3) (antibody, human IgG1, kappa, L234A L235A, V domains shown)
VH: QVTLKESGPVLVKPTETLTLTCTVSGFSLTNYAISWVRQPPGKGLEWLGVIWTGGGTNYNSGIKSRLTISKDNSKSQVVLTMTNMDPVDTARYYCVREGDYGSYAGAMDYWGQGTTVTVSS
VL: DIVLTQSPDSLAVSLGERATINCRASESVDYYGISSMHWFQQKPGQPPKLLIYRASNLESGIPARFSGSGSRTDFTLTISSLQAEDVAVYYCQQANKDPYTFGGGTKVEIKR

Assays:
[1] = biological target: T1, Human IL-36R protein (His + Avi Tag, …); experiment: phage panning on biotinylated human IL-36R, clone ELISA
[2] = biological target: T2, human IL-36R full-length protein stably …; experiment: FACS, CHO-K1 cells overexpressing human IL-36R
[3] = biological target: T3, Human IL-36R protein (His + Avi Tag), …; experiment: SPR (Biacore 8K), antibody captured by anti-human IgG Fc, IL-36R as analyte
[4] = biological target: T4, human IL-23 protein (ACROBiosystems, …); experiment: cell-based or functional assay
[5] = biological target: T4, human IL-23 protein (ACROBiosystems, …); experiment: cell-based or functional assay; remark: listed apart in the source
[6] = biological target: T4, human IL-23 protein (ACROBiosystems, …); experiment: SPR (Biacore 8K), antibody captured by anti-human IgG Fc, IL-23 as analyte
[7] = biological target: T4, human IL-23 protein (ACROBiosystems, …); experiment: ELISA, human IL-23 coated
[8] = biological target: T5, IL-36R on human skin squamous cell line …; experiment: cell-based or functional assay
[9] = biological target: T4, human IL-23 protein (ACROBiosystems, …); experiment: cell-based or functional assay; remark: listed apart in the source
[10] = biological target: T6, human IL-23 protein (Sino Biological, …); experiment: cell-based or functional assay
[11] = biological target: T6, human IL-23 protein (Sino Biological, …); experiment: competition ELISA, IL-23R coated, biotinylated IL-23 preincubated with antibody
[12] = biological target: T6, human IL-23 protein (Sino Biological, …); experiment: SPR (Biacore 8K), antibody captured on Protein A chip, IL-23 as analyte
[13] = biological target: T6, human IL-23 protein (Sino Biological, …); experiment: ELISA, test sample coated, His-tagged IL-23 in solution
[14] = biological target: T7, IL-23 (R&D Systems, 1290-IL-010); experiment: cell-based or functional assay

Row | Binder | EC50 [2] | Maximum MFI [2] | Kd [3] | koff [3] | kon [3] | DB-STAT3-Luc2 reporter gene system IC50 [4] | proliferation of BaF3-mIL-23R cells induced by IL-23, IC50 [5] | Kd [6] | koff [6] | kon [6] | EC50 [7] | IL-8 secretion (A431), IL-36α, IC50 [8] | IL-8 secretion (A431), IL-36β, IC50 [8] | IL-8 secretion (A431), IL-36γ, IC50 [8] | proliferation of BaF3-mIL-23R cells induced by IL-23, IC50 [9] | further results
1 | B1 | – | – | – | – | – | – | – | – | – | – | – | – | – | – | – | binding result [1]: binds
2 | B2 | 1.28 nM | 11600 MFI | 6.47 nM | 0.000123 s⁻¹ | 19100 M⁻¹ s⁻¹ | 7 nM | 0.39 nM | 0.023 nM | 5.97e-05 s⁻¹ | 2.6e+06 M⁻¹ s⁻¹ | 1.21 nM | 0.54 nM | 0.2 nM | 0.06 nM | – | –
3 | B3 | 1.13 nM | 11400 MFI | 15.9 nM | 0.000146 s⁻¹ | 9210 M⁻¹ s⁻¹ | 8.8 nM | – | 0.0235 nM | 6.83e-05 s⁻¹ | 2.9e+06 M⁻¹ s⁻¹ | 0.49 nM | 1.63 nM | 0.74 nM | 0.21 nM | 0.5 nM | –
4 | B4 | – | – | – | – | – | 5.1 nM | 0.36 nM | 0.0106 nM | 6.26e-05 s⁻¹ | 5.93e+06 M⁻¹ s⁻¹ | 0.55 nM | – | – | – | 0.43 nM | Activity in inhibiting proliferation of BaF3-IL-23R cells (IC50, nM) [10]: 0.194 nM; IC50 [11]: 0.478 nM; Kd [12]: 0.0151 nM; koff [12]: 4.08e-05 s⁻¹; kon [12]: 2.71e+06 M⁻¹ s⁻¹; EC50 [13]: 1.11 nM; IC50 for inhibiting IL-17 secretion [14]: 0.0177 nM
